The results in this text go back to paper PMC7753147 (2020).

By Ki is commonly meant a dissociation constant, usually derived from enzyme kinetics or from competition with a known ligand. The term EC50 denotes the concentration giving half of the maximal effect. Read a high EC50 as a need for much substance.

T1: gephyrin E domain (gephE), recombinant
T1 chain: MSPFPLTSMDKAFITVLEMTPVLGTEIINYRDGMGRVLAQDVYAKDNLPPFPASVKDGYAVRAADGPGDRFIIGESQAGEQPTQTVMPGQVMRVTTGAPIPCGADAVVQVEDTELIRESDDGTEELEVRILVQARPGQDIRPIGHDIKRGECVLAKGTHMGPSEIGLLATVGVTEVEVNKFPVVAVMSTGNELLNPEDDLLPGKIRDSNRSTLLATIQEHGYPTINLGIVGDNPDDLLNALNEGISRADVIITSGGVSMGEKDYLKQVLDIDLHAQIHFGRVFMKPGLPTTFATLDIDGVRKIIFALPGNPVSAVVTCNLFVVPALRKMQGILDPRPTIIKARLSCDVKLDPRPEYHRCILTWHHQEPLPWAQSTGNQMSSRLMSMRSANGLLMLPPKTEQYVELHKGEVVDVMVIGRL

T2: Gephyrin E domain (gephE) (Rattus norvegicus, UniProt Q03555)
T2 chain: T1 chain

For one assay, the target named is T1, gephyrin E domain (gephE), recombinant.
Take DLRSNDFSIVGSLPR (C-terminal amide) [GlyR β-derived peptide 414DLRSNDFSIVGSLPR428, unmodified, in solution]: the Ki was determined as 10 µM.

The target in the next assay is T2, Gephyrin E domain (gephE).
In the case of DLRSNDFGIVGSLPR [GlyRβ_Full_Positional_Scan_142], the EC50 turned out to be 505 µM.

Consider DLRSNDFSCVGSLPR [GlyRβ_Full_Positional_Scan_177], for which a half-maximal response (EC50) required 118 µM.

On to DLRSNDWSIVGSLPR [GlyRβ_Full_Positional_Scan_128], for which the midpoint of the response, the EC50, lay at 380 µM.

On to DLRSNDYSIVGSLPR [GlyRβ_Full_Positional_Scan_129], for which the EC50 was found to be 2200 µM.

DLRSNDFSLVGSLPR [GlyRβ_Full_Positional_Scan_164] returned a concentration giving a half-maximal response (EC50) of 268 µM.

The molecule DLRSNDFSIIGSLPR [GlyRβ_Full_Positional_Scan_183] displayed an EC50 of 107 µM.

DLRSNDFSVVGSLPR [GlyRβ_Full_Positional_Scan_166] yielded an EC50 of 255 µM.

The molecule DLRSNDFTIVGSLPR [GlyRβ_Full_Positional_Scan_156] showed an EC50 of 198 µM.

In turn, DLRSNDFSMVGSLPR [GlyRβ_Full_Positional_Scan_178] gave an EC50 of 228 µM.
